Target: 重组人Bromodomain结构域结合蛋白4(BRD4,区域49-170aa)(Biovision，货号:7643-100) (human, UniProt O60885 49-170)
Assay: BLI (Fortebio Octet), binding kinetics; format not stated

B1: BRD4-3F14单抗 (antibody, V domains shown)
VH: VKPGGSLKLSCAASRGWVDPYRMSWVRQTPDKRLEWVAIQITGHDFDYYPDSVKGRFTISRDQDKQTLYLQMSSLKSEDTAMYYCLGPKAVKHLELWGQGTTVTVS
VL: DLVMTQTAPSVPVTPGESVSISCRSTAWWYVWWMLWQLYWFLQRPGQSPQLLIYVYHNLASGVPDRFSGSGSGTAFTLRISRVEAEDVGVYYCWHFPRHKCSFGSGTKLEIK
In the case of B1, the Kd is reported as 1.07 nM.

Reference: CN116063478A (BEIJING SHUNYUANTIAN BIOLOGICAL PRODUCTS CO LTD, dated 2023)
